These results are taken from patent US20250011363A1, “OPTIMIZED SHORTENED PEPTIDE THAT BINDS TO ACETYLCHOLINE RECEPTOR, AND USE THEREOF” (SKINMED CO., LTD., priority 2021, published 2025).

For the test, the target named is acetylcholine receptor. Kind of test: SPR, receptor immobilized, peptide 10 uM. (In general: SPR reads the build-up and loss of mass on a sensor chip optically.)

Take KKWQQR [6mer-1-153]: the Binding affinity (RU) amounted to 146 RU. In the case of KGRLKK [6mer-2-140], the Binding affinity was 142 RU. For the molecule KKSYSK [6mer-1-189], the Binding affinity (RU) was 137 RU. KRLQTK [6mer-1-163] gave a Binding affinity (RU) of 147 RU. Same read-out and setting: under RKLYQK [6mer-1-141] stands 141 RU; under RRRIQK [6mer-1-175], 137 RU. The molecule RRVCRR [6mer-2-143] returned a Binding affinity of 128 RU. The molecule RKRQCR [6mer-1-150] registered a Binding affinity (RU) of 142 RU. As to KRGYRR [6mer-1-177], the Binding affinity (RU) amounted to 121 RU.

As for KRLRRK [6mer-1-159], the Binding affinity (RU) was 139 RU. Consider RKWQRR [6mer-1-194], for which the Binding affinity (RU) came out at 144 RU. For KKWFTK [6mer-1-165], the Binding affinity (RU) worked out at 148 RU. For RRQQSK [6mer-1-169], the Binding affinity (RU) stood at 153 RU. In turn, RKLVRK [6mer-1-180] came in with a Binding affinity (RU) of 146 RU. Molecule KKVYYK [6mer-1-142] had a Binding affinity (RU) of 123 RU. For KRVIRR [6mer-1-152], the Binding affinity (RU) worked out at 154 RU.

With KRGICK [6mer-1-182], the Binding affinity (RU) is 147 RU.

The molecule KRWFCK [6mer-1-168] returned a Binding affinity (RU) of 131 RU. Take RRLIRK [6mer-1-172]: the Binding affinity (RU) turned out to be 153 RU. KRQICR [6mer-1-184] showed a Binding affinity (RU) of 139 RU. RKLYYR [6mer-1-190]: the Binding affinity (RU) turned out to be 153 RU. Same read-out and setting: then RKWRRK [6mer-1-196], with 142 RU. In turn, RRWYSK [6mer-1-166] gave a Binding affinity (RU) of 148 RU. As for KKQIQR [6mer-1-147], the Binding affinity (RU) stood at 125 RU.

Consider RQYTKR [6mer-2-147], for which the Binding affinity worked out at 133 RU. RWVLRR [6mer-2-142] gave a Binding affinity of 121 RU. In turn, KRGQYK [6mer-1-164] displayed a Binding affinity (RU) of 145 RU. Turning to KRQYQR [6mer-1-192], the Binding affinity (RU) was determined as 127 RU. In the case of KSIRRK [6mer-2-144], the Binding affinity turned out to be 133 RU.

Take RQYYKK [6mer-2-145]: the Binding affinity turned out to be 128 RU. The molecule KQRRRK [6mer-2-138] registered a Binding affinity of 153 RU.

In turn, KKQVQK [6mer-1-199] displayed a Binding affinity (RU) of 151 RU.

In turn, KKGQTR [6mer-1-183] gave a Binding affinity (RU) of 121 RU.

The molecule RRVIQR [6mer-1-160] showed a Binding affinity (RU) of 149 RU. For the molecule RKRYTR [6mer-1-144], the Binding affinity (RU) worked out at 148 RU.

KQLLKR [6mer-2-146] had a Binding affinity of 135 RU. In turn, KRQLRK [6mer-1-185] had a Binding affinity (RU) of 153 RU. On to KKGVLR [6mer-1-181], for which the Binding affinity (RU) worked out at 148 RU. In turn, KKQILK [6mer-1-191] returned a Binding affinity (RU) of 139 RU. For the molecule KKSLLR [6mer-1-157], the Binding affinity (RU) was determined as 123 RU. Still for that read-out and setting: under RRSIRR [6mer-1-197] stands 139 RU. With KWYQKK [6mer-2-141], the Binding affinity came out at 154 RU. As for KKGVCR [6mer-1-174], the Binding affinity (RU) was 154 RU.

Turning to RRWVCK [6mer-1-149], the Binding affinity (RU) worked out at 131 RU. On to RKQYYR [6mer-1-173], for which the Binding affinity (RU) was 123 RU. Still for that read-out and setting: then RRRVYK [6mer-1-186], with 147 RU. KRSQYR [6mer-1-179] returned a Binding affinity (RU) of 148 RU. KRGRRR [6mer-1-146]: the Binding affinity (RU) worked out at 139 RU.

In turn, KRRYCK [6mer-1-161] had a Binding affinity (RU) of 139 RU. Still for that read-out and setting: then RKLFYK [6mer-1-187], with 139 RU.

For the molecule KKLYSR [6mer-1-154], the Binding affinity (RU) was determined as 153 RU. Turning to RRLIYR [6mer-1-158], the Binding affinity (RU) stood at 131 RU. Molecule RRRIQR [6mer-1-201] registered a Binding affinity (RU) of 151 RU. For the molecule KRGISR [6mer-1-195], the Binding affinity (RU) stood at 122 RU. The same measure, in the same setting: then RRRYQR [6mer-1-167], with 122 RU; and RKLYQR [6mer-1-200], with 142 RU. On the same count and under the same terms, under KRVQLK [6mer-1-193] stands 149 RU; under RKLRCR [6mer-1-148], 146 RU. In turn, RKSFYR [6mer-1-170] showed a Binding affinity (RU) of 148 RU. KRGVRR [6mer-1-151] came in with a Binding affinity (RU) of 145 RU. The molecule RKRYQK [6mer-1-178] returned a Binding affinity (RU) of 139 RU.

Molecule RKVFQR [6mer-1-145] had a Binding affinity (RU) of 141 RU. For the molecule KVFCKK [6mer-2-137], the Binding affinity worked out at 135 RU.

The molecule KRGVLR [6mer-1-143] returned a Binding affinity (RU) of 145 RU. For RKQFQK [6mer-1-171], the Binding affinity (RU) was found to be 123 RU. KRLFCR [6mer-1-198] had a Binding affinity (RU) of 148 RU.

KKVYCK [6mer-1-176] had a Binding affinity (RU) of 121 RU. In turn, RRVRSR [6mer-1-155] registered a Binding affinity (RU) of 127 RU. RKSLQK [6mer-1-188]: the Binding affinity (RU) worked out at 122 RU.

The molecule RRSVTK [6mer-1-156] registered a Binding affinity (RU) of 154 RU. Turning to KLFRKK [6mer-2-139], the Binding affinity came out at 149 RU. Consider KKSLSK [6mer-1-162], for which the Binding affinity (RU) turned out to be 142 RU.
